Assay [1] concerns the target Human Met-Fc chimera (human) (UniProt P08581). In words: ELISA. On the technique in general: ELISA stands for enzyme-linked immunosorbent assay.
The target of assay [2] is Rat tail collagen type I, neutralized fibrillar (rat) (UniProt P02454). In words: ELISA.
The target of assay [3] is Met receptor (human (endogenous in HeLa)) (UniProt P08581). In words: cross-linking + co-IP.
Assay [4] has as its target T1, Human Met-Fc chimera (human, UniProt P08581 25-932, fully glycosylated). In words: ELISA.
The target in assay [5] is T1, Human Met-Fc chimera. Put plainly: ELISA. This is another data set of the same source.

The source of these data is PMC2711571 (The Journal of Cell Biology, 2009).

Where “and” joins values, the source holds several entries; their conditions need not be identical. Identical values can stand only once.

T1 sequence (P08581 25-932, change not shown): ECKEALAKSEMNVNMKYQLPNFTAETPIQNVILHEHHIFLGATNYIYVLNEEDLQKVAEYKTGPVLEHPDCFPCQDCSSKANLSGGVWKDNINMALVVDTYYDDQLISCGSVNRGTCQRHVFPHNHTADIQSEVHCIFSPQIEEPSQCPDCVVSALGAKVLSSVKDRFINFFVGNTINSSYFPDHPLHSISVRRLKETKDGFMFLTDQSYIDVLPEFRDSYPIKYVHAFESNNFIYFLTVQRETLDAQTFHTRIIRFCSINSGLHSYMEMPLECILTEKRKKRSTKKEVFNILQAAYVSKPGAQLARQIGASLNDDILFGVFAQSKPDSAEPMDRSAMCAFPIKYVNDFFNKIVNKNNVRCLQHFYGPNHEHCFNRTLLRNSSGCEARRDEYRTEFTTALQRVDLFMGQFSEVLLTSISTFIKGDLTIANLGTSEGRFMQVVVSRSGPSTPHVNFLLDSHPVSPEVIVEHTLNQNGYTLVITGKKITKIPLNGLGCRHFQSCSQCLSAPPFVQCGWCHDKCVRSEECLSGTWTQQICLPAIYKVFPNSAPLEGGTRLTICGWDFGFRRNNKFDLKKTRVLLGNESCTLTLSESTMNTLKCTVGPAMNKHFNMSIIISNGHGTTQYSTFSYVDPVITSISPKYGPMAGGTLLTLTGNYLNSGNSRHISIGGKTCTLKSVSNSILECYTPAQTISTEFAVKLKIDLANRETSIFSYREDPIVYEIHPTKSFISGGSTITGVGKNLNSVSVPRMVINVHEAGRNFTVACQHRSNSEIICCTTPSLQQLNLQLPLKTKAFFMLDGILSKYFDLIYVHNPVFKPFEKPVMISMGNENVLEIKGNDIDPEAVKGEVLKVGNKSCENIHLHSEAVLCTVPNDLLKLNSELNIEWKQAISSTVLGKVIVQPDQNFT
Met receptor (human (endogenous in HeLa)), sequence (P08581 25-1390): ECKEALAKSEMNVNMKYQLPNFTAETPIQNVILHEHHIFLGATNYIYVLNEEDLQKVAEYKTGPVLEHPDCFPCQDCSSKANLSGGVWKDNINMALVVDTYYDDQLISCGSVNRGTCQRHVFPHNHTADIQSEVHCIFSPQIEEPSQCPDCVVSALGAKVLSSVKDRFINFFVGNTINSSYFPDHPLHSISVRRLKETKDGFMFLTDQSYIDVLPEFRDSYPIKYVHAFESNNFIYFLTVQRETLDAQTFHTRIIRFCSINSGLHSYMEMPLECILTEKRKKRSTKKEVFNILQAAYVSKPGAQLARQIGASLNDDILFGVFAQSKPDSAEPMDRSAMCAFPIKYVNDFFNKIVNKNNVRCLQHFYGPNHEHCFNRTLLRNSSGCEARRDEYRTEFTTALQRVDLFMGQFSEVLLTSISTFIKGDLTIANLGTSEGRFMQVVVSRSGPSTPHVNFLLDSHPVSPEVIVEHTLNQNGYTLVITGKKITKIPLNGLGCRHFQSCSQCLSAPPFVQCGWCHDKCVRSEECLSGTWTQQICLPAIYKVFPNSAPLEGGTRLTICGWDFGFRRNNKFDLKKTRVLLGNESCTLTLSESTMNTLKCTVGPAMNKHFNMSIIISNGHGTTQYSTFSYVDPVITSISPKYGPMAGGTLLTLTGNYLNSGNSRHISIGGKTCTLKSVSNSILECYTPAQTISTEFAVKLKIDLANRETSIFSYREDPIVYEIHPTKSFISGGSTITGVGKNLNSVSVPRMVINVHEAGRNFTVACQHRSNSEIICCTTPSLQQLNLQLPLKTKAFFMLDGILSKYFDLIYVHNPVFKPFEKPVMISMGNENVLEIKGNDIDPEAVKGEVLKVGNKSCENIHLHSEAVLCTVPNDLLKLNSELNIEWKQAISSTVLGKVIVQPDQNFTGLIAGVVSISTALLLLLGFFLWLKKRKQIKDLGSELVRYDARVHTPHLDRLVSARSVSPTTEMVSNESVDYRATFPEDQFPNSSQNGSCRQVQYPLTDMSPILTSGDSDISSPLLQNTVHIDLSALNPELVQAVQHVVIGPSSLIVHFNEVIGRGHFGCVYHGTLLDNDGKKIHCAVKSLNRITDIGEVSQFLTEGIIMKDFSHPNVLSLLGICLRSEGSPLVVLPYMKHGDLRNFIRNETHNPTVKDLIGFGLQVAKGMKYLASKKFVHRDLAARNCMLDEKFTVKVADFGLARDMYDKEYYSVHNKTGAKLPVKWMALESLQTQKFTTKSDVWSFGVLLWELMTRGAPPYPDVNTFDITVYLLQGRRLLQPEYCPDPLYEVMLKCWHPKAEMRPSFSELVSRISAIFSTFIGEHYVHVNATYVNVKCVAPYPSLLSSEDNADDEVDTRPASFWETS
Rat tail collagen type I, neutralized fibrillar (rat), sequence (P02454 152-1207, chain 1 of 2): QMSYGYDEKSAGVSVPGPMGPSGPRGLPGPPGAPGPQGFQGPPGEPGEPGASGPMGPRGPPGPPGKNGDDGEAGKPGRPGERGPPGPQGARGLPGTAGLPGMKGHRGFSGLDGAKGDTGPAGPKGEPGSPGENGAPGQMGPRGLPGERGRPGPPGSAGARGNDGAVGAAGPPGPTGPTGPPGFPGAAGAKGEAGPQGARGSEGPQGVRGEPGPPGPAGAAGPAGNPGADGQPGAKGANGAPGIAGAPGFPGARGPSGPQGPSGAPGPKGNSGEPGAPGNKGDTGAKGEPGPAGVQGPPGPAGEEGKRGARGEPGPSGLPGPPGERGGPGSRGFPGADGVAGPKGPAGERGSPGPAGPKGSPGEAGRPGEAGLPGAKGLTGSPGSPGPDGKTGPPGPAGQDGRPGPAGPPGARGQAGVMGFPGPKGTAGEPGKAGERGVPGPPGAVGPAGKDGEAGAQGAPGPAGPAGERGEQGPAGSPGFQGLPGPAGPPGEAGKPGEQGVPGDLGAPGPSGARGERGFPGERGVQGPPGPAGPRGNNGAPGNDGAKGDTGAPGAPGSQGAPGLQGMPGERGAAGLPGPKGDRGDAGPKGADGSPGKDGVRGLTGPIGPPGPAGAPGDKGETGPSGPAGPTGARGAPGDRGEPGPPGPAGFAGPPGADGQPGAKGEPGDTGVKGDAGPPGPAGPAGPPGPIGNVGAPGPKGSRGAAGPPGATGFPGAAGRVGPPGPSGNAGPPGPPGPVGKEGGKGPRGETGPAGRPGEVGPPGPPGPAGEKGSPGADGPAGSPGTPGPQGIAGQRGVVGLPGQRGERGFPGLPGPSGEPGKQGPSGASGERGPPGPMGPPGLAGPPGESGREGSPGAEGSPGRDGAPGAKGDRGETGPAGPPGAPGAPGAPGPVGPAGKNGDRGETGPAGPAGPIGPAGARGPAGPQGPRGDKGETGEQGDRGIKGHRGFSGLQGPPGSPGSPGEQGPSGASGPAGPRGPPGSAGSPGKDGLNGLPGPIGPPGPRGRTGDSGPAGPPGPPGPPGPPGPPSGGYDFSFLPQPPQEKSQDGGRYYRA
Rat tail collagen type I, neutralized fibrillar (rat), sequence (P02466 86-1125, chain 2 of 2, further chain): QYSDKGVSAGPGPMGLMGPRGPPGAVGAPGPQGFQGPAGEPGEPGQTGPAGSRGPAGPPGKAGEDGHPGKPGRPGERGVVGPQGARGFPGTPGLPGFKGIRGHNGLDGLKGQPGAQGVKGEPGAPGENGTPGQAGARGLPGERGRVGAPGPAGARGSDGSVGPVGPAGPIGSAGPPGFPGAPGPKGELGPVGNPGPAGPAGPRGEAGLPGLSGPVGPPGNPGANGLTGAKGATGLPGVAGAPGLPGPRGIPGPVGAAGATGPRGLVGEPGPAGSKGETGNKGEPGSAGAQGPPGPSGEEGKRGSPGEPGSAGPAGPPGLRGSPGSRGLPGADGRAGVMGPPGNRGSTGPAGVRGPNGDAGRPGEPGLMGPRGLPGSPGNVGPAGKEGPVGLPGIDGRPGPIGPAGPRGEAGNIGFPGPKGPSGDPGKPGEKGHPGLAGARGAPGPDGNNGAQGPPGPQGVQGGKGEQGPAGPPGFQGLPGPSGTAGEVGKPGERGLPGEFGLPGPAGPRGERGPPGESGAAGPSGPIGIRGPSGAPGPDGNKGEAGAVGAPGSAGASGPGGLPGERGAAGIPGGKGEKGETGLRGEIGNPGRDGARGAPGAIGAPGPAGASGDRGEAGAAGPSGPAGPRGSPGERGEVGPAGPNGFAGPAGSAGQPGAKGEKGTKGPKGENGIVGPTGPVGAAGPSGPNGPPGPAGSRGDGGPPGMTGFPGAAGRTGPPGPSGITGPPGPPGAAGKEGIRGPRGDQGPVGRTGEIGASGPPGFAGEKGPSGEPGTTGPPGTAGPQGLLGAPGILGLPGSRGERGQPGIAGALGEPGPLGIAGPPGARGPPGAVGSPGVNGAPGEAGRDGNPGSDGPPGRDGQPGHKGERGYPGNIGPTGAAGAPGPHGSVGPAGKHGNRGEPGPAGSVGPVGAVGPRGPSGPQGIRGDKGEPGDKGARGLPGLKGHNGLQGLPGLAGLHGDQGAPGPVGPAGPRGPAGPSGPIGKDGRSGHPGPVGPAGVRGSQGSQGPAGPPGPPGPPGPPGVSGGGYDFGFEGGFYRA
Human Met-Fc chimera (human), sequence (P08581 25-932, change not shown): as the sequence (P08581 25-932, change not shown) above

Consider “Decorin protein core (from UniProt P07585 31-359) (ligand)”, for which the values for the Kd in assay [1] and in assay [2] were 1.5 nM and 0.28 nM, respectively. In addition, the stoichiometry N in assay [3] turned out to be 1.

B1: Internalin B (ligand)
chain: AKVQAETITVPTPIKQIFSDDAFAETIKDNLKKKSVTDAVTQNELNSIDQIIANNSDIKSVQGIQYLPNVTKLFLNGNKLTDIKPLANLKNLGWLFLDENKVKDLSSLKDLKKLKSLSLEHNGISDINGLVHLPQLESLYLGNNKITDITVLSRLTKLDTLSLEDNQISDIVPLAGLTKLQNLYLSKNHISDLRALAGLKNLDVLELFSQECLNKPINHQSNLVVPNTVKNTDGSLVTPEIISDDGDYEKPNVKWHLPEFTNEVSFIFYQPVTIGKAKARFHGRVTQPLKEVYTVSYDVDGTVIKTKVEAGTRITAPKPPTKQGYVFKGWYTEKNGGHEWNFNTDYMSGNDFTLYAVFKAETTEKAVNLTRYVKYIRGNAGIYKLPREDNSLKQGTLASHRCKALTVDREARNGGKLWYRLKNIGWTKAENLSLDRYDKMEYDKGVTAYARVRNASGNSVWTKPYNTAGAKHVNKLSVYQGKNMRILREAKTPITTWYQFSIGGKVIGWVDTRALNTFYKQSMEKPTRLTRYVSANKAGESYYKVPVADNPVKRGTLAKYKNQKLIVDCQATIEGQLWYRIRTSSTFIGWTKAANLRAQK
In the case of B1, in assay [4], the IC50 was ~120 nM and ~180 nM. The molecule further displayed a Kd in assay [5] of 2.16 nM.

The term Kd denotes the equilibrium constant for the complex coming apart. By stoichiometry N is commonly meant a count of units in the complex or per binding partner. By IC50 is commonly meant the concentration that inhibits the measured activity by half. The low end stands for inhibition by little substance, the high end for a need for much substance.
